These results are taken from US11529425B2, “Immunoconjugates comprising signal regulatory protein alpha” (DINGFU BIOTARGET CO., LTD., priority 2017, dated 2022).

In general, kon refers to the rate constant with which the complex forms. Low values mean slower complex formation, high ones faster complex formation.

Series [1] concerns mouse RBCs. Put plainly: Mouse RBC binding, MC38 tumor cells mixed with 15-fold excess of mouse RBCs. The note with it: MC38 cells with 15-fold excess of mouse RBCs, 20 μg/ml, FIG. 6g/6h. How it is done:
Similarly, MC38 tumor cells were mixed with a 15-fold excess of mouse RBCs, and then incubated with 20 μg/ml, a-mPD-L1, mSIRPα-Fc, CV1-Fc, mPD-L1-CV1, mPD-L1-mSIRPα or isotype control (human IgG1) at 4° C. for 30 min. Then the cells were washed to remove unbound proteins and incubated with an anti-hlgG Fc gamma specific PE antibody at 4° C. for 20 min. The cells were analyzed by flow cytometry (Life Technology). The gate of erythrocytes was assessed by anti-mouse RBC antibody (abcam Cat #ab106101). In FIG. 6g, serial numbers of 1, 2, 3 and 4 correspond to isotype control (human IgG1), mSIRPα-Fc, a-mPD-L1 and mPD-L1-mSIRPα. In FIG. 6h, serial numbers of 1, 2, 3 and 4 correspond to isotype control (human IgG1), CV1-Fc, a-mPD-L1 and mPD-L1-CV1.

Series [2] deals with T1, CD47-muFc (Homo sapiens, UniProt Q08722).
T1 construct: made in house; host or cells: transiently transfected FreeStyle 293F cells (HEK293)
T1 sequence (Q08722 with tags, fused parts or gaps): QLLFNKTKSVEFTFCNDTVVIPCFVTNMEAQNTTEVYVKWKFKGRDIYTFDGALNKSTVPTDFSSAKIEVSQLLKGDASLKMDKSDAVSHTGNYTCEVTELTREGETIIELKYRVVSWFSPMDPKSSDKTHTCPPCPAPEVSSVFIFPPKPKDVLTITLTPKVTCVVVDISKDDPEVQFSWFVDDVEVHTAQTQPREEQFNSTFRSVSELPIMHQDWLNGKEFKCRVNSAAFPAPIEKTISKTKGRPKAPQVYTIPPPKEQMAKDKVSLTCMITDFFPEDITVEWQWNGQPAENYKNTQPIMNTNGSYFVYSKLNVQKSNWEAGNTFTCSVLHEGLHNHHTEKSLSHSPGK
The series can be described thus: Binding kinetics by bio-layer inferometry (BLI), Octet K2. From the text: The amino acid sequence of the human CD47 extracellular domain (i.e., the 19th residue to the 141th residue in Q08722) was obtained according to the amino acid sequence of human CD47 (Q08722) in the protein database Uniprot. According to the amino acid sequence of the constant region of murine immunoglobulin gamma1 (P01868) in the protein database Uniprot, the amino acid sequence of muFc (i.e., the 112th residue to the 213th residue in P01868) was obtained. The DNAworks Online Tool (helixweb.nih.gov) was used to design the corresponding coding DNA sequence to obtain the CD47-muFc fusion protein gene, and the DNA fragment was obtained by artificial synthesis. The synthetic gene sequences were cloned into commercial vector pcDNA4/myc-HisA (Invitrogen, V863-20) by Fermentas HindIII and EcoRI. The recombinant plasmids were then sequenced for confirmation, thereby obtaining the plasmid DNA of pcDNA4-CD47-muFc. The amino acid sequences of CD47-muFc is as set forth in SEQ ID NO: 61, and the polynucleotide sequence encoding it is as set forth in SEQ ID NO: 62.
Binding kinetics of a hu56di-SIRPα immunoconjugate or control antibodies (SIRPα-Fc IgG1 and AB6.12 IgG1) were determined by the bio-layer inferometry (BLI) method using Octet K2 system (FortéBio). All experiments were performed at 25° C. under a PBS buffer containing 0.5% BSA and 0.5% Tween 20, pH 7.2. CD47-muFc was immobilized onto AHC Biosensors, which were subsequently used in association (with hu56di-SIRPα, SIRPα-Fc IgG1 or AB6.12 IgG1) and dissociation measurements each performed for a time window of 40 seconds and 300 seconds, respectively. After the above steps, the subtracted binding interference data were applied to the calculations of binding constants using the FortéBio analysis software provided with the instrument.

Series [3] deals with A375 cell (expressing CD47) and A375-PD-L1 tumor cells (expressing both CD47 and PD-L1). The series can be described thus: Tumor binding in excess erythrocyte antigen sink, flow cytometry. The settings on record: 15-fold excess of RBCs, FIG. 6a. Here is the method:
An important concern about CD47-based therapeutics is the expression of the target on the surface of erythrocyte, which has the potential to act as a large antigen sink and cause hematological toxicity. […] The binding of hu56di-SIRPα to tumor cell in excess human erythrocytes antigen sink was therefore assessed by flow cytometry. A375 cell (expressing CD47) and A375-PD-L1 tumor cells (expressing both CD47 and PD-L1) were mixed with a 15-fold excess of RBCs, and then incubated with 20 μg/ml hu56di-SIRPα, SIRPα-Fc IgG1 or AB6.12 IgG1 or isotype control (human IgG1) at 4° C. for 30 min. Then the cells were washed to remove unbound proteins and incubated with an anti-hlgG Fc gamma specific PE antibody at 4° C. for 20 min. The cells were analyzed by flow cytometry (Life Technology). The gate of erythrocytes was assessed by anti-human CD235a (eBiosciences Cat #12-9987-80).
Then the cells were washed to remove unbound proteins and incubated with an anti-hlgG Fc gamma specific PE antibody at 4° C. for 20 min. The cells were analyzed by flow cytometry (Life Technology). The gate of erythrocytes was assessed by anti-human CD235a (eBiosciences Cat #12-9987-80).
For orientation: In flow cytometry, cells or beads pass a laser one at a time.

The subject of series [4] is human erythrocytes (RBC). The series can be described thus: RBC binding in tumor cell / 15-fold excess RBC mix, flow cytometry. The note with it: tumor cells mixed with 15-fold excess of RBCs, 20 μg/ml, FIG. 6a-6e.
Series [5] concerns RBC. Put plainly: Binding to fresh RBC diluted 2500 times, flow cytometry. The note with it: 20 μg ml^−1, FIG. 6f. How it is done: Similarly, fresh RBC cell was diluted 2500 times, then it was incubated with 20 μg ml^−1 isotype control (human IgG1), hu56di-SIRPα, hu56di-CV1, SIRPα-Fc IgG1 and AB6.12 IgG1, respectively. The results were shown in FIG. 6f, in which serial numbers of 1, 2, 3, 4 and 5 correspond to isotype control, hu56di-SIRPα, hu56di-CV1, SIRPα-Fc IgG1 and AB6.12 IgG1.

For series [6] the following is noted: reported in treated animal; cited from earlier work.
The conditions of series [7]: reported after being injected into human; cited from earlier work.

With “mSIRPα-Fc: mouse SIRPα fused via linker to human IgG1-Fc, SEQ ID NO: 152, Group 18”, the “binding to mouse RBC” value in series [1] is “weaker binding to RBC than mPD-L1-CV1”.
For the substance “SIRPα-Fc IgG1: reference homodimer: human SIRPα fused via peptide linker to human IgG1 Fc, SEQ ID NO: 69”, the “binding affinity to CD47 (comparison in words)” value in series [2] (Table 6) is recorded as “comparable binding affinity to CD47”. Further, the “kon” value in series [2] (association 40 seconds, 25° C.) amounted to 650000 M⁻¹ s⁻¹. Further, the “kdis” value in series [2] (dissociation 300 seconds, 25° C.) was 0.00377 s⁻¹. The “preference of binding, tumor cells versus RBC” value in series [3] was “bound tumor cells and RBCs at the same time”. For the same substance, the “binding to RBC (MFI)” value in series [4] was “bind to RBC”. Besides, the “binding to RBC” value in series [5] was “weaker binding to RBC than hu56di-CV1 and AB6.12 IgG1”. The anemia result in series [6] is “anemia has been reported”. Also, in series [7], the thrombocytopenia result is recorded as “induced thrombocytopenia”.
